Data set [1] addresses T1, CtNAT10 (Chaetomium thermophilum NAT10; Kre33) (Thermochaetoides thermophila, UniProt G0S273).
T1 construct: codon-optimised synthetic gene; Sf9 (functional assays and 9B0I) or E. coli (9AYM, 9B0E)
T1 sequence (G0S273 1-1073): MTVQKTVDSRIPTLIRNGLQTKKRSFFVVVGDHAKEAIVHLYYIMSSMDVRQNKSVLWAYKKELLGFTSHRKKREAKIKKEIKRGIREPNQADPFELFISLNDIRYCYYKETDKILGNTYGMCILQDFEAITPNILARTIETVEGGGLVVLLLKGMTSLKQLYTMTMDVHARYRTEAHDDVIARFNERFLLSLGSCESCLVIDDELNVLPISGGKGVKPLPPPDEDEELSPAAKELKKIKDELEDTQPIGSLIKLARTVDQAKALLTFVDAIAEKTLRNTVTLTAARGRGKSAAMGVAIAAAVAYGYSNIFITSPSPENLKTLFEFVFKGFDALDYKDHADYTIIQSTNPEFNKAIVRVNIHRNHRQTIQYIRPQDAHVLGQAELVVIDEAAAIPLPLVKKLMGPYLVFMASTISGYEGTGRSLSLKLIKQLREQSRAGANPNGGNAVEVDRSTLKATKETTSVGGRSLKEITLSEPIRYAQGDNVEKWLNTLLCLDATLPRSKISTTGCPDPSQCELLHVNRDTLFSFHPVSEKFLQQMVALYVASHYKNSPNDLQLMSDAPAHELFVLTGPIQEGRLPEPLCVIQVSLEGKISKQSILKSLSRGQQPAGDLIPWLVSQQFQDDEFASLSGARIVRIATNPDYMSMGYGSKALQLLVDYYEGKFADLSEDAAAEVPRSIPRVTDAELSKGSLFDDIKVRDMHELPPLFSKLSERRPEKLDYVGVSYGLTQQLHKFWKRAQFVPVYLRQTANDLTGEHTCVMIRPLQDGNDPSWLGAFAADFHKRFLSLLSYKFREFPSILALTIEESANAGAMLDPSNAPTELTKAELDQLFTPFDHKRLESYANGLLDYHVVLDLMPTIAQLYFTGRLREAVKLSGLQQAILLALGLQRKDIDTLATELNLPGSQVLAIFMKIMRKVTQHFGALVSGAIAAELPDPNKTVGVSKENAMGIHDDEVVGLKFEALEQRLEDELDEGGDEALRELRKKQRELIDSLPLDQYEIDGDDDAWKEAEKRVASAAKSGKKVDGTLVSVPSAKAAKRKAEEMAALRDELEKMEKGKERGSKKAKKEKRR
Description: differential scanning fluorimetry, SYPRO orange. It is filed as binding. To be noted: apo Tm 42.0 ± 0.3 °C, 5 mM MgCl2, Hepes pH 7.5, Tm with ligand, not a shift. For orientation: DSF heats the sample and reads unfolding from a dye or from intrinsic fluorescence.

Data set [2] addresses Chaetomium thermophilum NAT10 (CtNAT10), E. coli-produced recombinant (Chaetomium thermophilum). Description: mass photometry; 1 ul of 200 nM protein stock into 19 ul dilution buffer (10 nM); 300 mM NaCl, 25 mM Hepes-NaOH pH 7.5, 1 mM TCEP; room temperature.
The target of data set [3] is Chaetomium thermophilum NAT10 (CtNAT10), Sf9-produced recombinant (Chaetomium thermophilum). The data set is described as above.
For data set [4], the target named is T2, CtNAT10 WT (Chaetomium thermophilum, UniProt G0S273 1-1073).
T2 sequence: T1 sequence (G0S273 1-1073)
In words: EMSA; no THUMPD1; 0.5 mM ATP, 0.1 mM acetyl-CoA; 50 mM Hepes-KOH pH 7.6, 90 mM NaCl (Fig 1B) or 75 mM NaCl + 0.2 mg/ml BSA (Fig S4A), 12 mM KCl, 10 mM MgCl2, 1 mM DTT, 0.5 mM ATP, 0.1 mM acetyl-CoA; Fig 1B 15. To be noted: protein: recombinant; tags: N-terminal 6xHis; chain copies: 2; tRNA fold.

Data set [5] addresses T2, CtNAT10 WT. Description: EMSA; 0.5 mM ATP, 0.1 mM acetyl-CoA; 50 mM Hepes-KOH pH 7.6, 90 mM NaCl (Fig 1B) or 75 mM NaCl + 0.2 mg/ml BSA (Fig S4A), 12 mM KCl, 10 mM MgCl2, 1 mM DTT, 0.5 mM ATP, 0.1 mM acetyl-CoA; Fig 1B 15. As to conditions: protein: recombinant; tags: N-terminal 6xHis; chain copies: 2; tRNA fold. A general note: In EMSA bound probe runs differently from free probe, usually more slowly.

As to `CC(=O)SCCNC(=O)CCNC(=O)[C@H](O)C(C)(C)COP(=O)(O)OP(=O)(O)OC[C@H]1O[C@@H](n2cnc3c(N)ncnc32)[C@H](O)[C@@H]1OP(=O)(O)O` [acetyl-CoA], in data set [1] (ligand series 0.25-2500 μM), the Tm was 46.1 ± 0.1 °C.

With `Nc1ncnc2c1ncn2[C@@H]1O[C@H](COP(=O)(O)OP(=O)(O)OP(=O)(O)O)[C@@H](O)[C@H]1O` [ATP], the Tm in data set [1] (ligand series 0.25-2500 μM) worked out at 53.8 ± 0.1 °C.

Broadly, the stoichiometry N is the number of molecules, sites or subunits per partner or assembly. With “Chaetomium thermophilum NAT10 (CtNAT10), E. coli-produced recombinant (enzyme)”, the stoichiometry N in data set [2] was 2.

In the case of “Chaetomium thermophilum NAT10 (CtNAT10), Sf9-produced recombinant (enzyme)”, the stoichiometry N in data set [3] was found to be 2.

In the case of `CC(C)(COP(=O)(O)OP(=O)(O)OC[C@H]1O[C@@H](n2cnc3c(N)ncnc32)[C@H](O)[C@@H]1OP(=O)(O)O)[C@@H](O)C(=O)NCCC(=O)NCCSCC(=O)Nc1ccn([C@@H]2O[C@H](CO)[C@@H](O)[C@H]2O)c(=O)n1` [cytidine-amide-CoA], in data set [1] (ligand series 0.20-2000 μM), the Tm was 46.4 ± 0.1 °C.

B1: CttRNAAla (IVT) (structured_RNA)
RNA: GGGCGUGUAGCUCAGUUGGUAGAGCGUUCGCUUAGCAUGCGAGAGGUCCUGGGUUCGAUUCCCAGCCCGUCCA
Take B1: the binding result in data set [4] is listed as “binds”.

B2: ct-tRNALeu (synthetic) (structured_RNA)
RNA: GGCAAGAUGGCCGAGCGGUCCAAGGCGCCAGGUUCAGGUCCUGGUCUCCGCAAGGGGGCGUGAGUUCGAAUCUCACUCUUGUCA
Regarding B2, the binding result in data set [5] is recorded as “binds”.

B3: ct-tRNASer (synthetic) (structured_RNA)
RNA: GACAACUUGGCCGAGUGGUUAAGGCGACAGACUUGAAAUCUGUUGGGUUCGCCCUCACAGGUUCGAAUCCUGUAGUUGUCG
In the case of B3, the binding result in data set [5] is “binds”.

The values above are taken from article PMC13433802, “Structure of the NAT10 acetyltransferase and mechanism of tRNA acetylation” (Nature Communications, 2026).
